± gives the standard deviation of the averaged measurements.
B1: library; a variant is named by its letters at N, in order (parent)
chain: GCUGUCACCGGUGCUUGGUACGUUAUAUUCAGCCGGUCUGAUGAGUCUNNNNNNAGACGAAACAGC

Assays:
[1] = variants of: B1; experiment: normalized RNA/DNA level without ligand (relative to sTRSVctl = 100) (log10 (% of sTRSVctl)); HEK293T overexpressing SLC46A1; higher = less ribozyme self-cleavage, higher mRNA level; conditions: without (6R,S)-folinic acid; ligand present: no
Procedure, shortened: (§1)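 Library plasmids encoding reporter-linked ribozyme switches (mCherry, or eGFP for some folinic acid experiments) were transfected into HEK293T at 4 µg per 6-well well. Ligand, when used, was added 1 h before transfection. Total RNA was extracted with EDTA 72 h later, then reverse-transcribed, amplified, barcoded and sequenced. RNA level was RNA reads over DNA reads, divided by a spiked-in non-cleaving control (or the top 25 sequences), ×100, log10; only sequences with ≥100 DNA reads were kept.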

[2] = variants of: B1; experiment: normalized RNA/DNA level with ligand (relative to sTRSVctl = 100) (log10 (% of sTRSVctl)); HEK293T overexpressing SLC46A1; ligand concentration (+) RNA-Seq: 6 mM; higher = less ribozyme self-cleavage, higher mRNA level; conditions: with (6R,S)-folinic acid; ligand present: yes
Procedure, shortened: as §1

GCCUUC
normalized RNA/DNA level without ligand (log10) [1]: 2.05 ± 0.042 | normalized RNA/DNA level with ligand (log10) [2]: 2.062 ± 0.012

GCCUUU
normalized RNA/DNA level without ligand (log10) [1]: 2.04 ± 0.032 | normalized RNA/DNA level with ligand (log10) [2]: 2.05 ± 0.044

GCCUUG
normalized RNA/DNA level without ligand (log10) [1]: 1.994 ± 0.0032 | normalized RNA/DNA level with ligand (log10) [2]: 2.03 ± 0.033

GCCGAC
normalized RNA/DNA level without ligand (log10) [1]: 1.982 ± 0.0078 | normalized RNA/DNA level with ligand (log10) [2]: 2.04 ± 0.029

GCCGAU
normalized RNA/DNA level without ligand (log10) [1]: 2.015 ± 0.007 | normalized RNA/DNA level with ligand (log10) [2]: 2.05 ± 0.03

ACCGUG
normalized RNA/DNA level without ligand (log10) [1]: 1.92 ± 0.02 | normalized RNA/DNA level with ligand (log10) [2]: 2.007 ± 0.015

ACCGUC
normalized RNA/DNA level without ligand (log10) [1]: 2.1 ± 0.03 | normalized RNA/DNA level with ligand (log10) [2]: 2.07 ± 0.037

ACCGUA
normalized RNA/DNA level without ligand (log10) [1]: 1.969 ± 0.0072 | normalized RNA/DNA level with ligand (log10) [2]: 2.01 ± 0.048

CCCGAG
normalized RNA/DNA level without ligand (log10) [1]: 1.95 ± 0.0086 | normalized RNA/DNA level with ligand (log10) [2]: 1.99 ± 0.022

CCCGAA
normalized RNA/DNA level without ligand (log10) [1]: 2.029 ± 0.0067 | normalized RNA/DNA level with ligand (log10) [2]: 2.02 ± 0.056

CCCGAU
normalized RNA/DNA level without ligand (log10) [1]: 2.002 ± 0.016 | normalized RNA/DNA level with ligand (log10) [2]: 2.017 ± 0.0026

CCCGAC
normalized RNA/DNA level without ligand (log10) [1]: 2.043 ± 0.016 | normalized RNA/DNA level with ligand (log10) [2]: 2.05 ± 0.033

ACCUCA
normalized RNA/DNA level without ligand (log10) [1]: 2.047 ± 0.0058 | normalized RNA/DNA level with ligand (log10) [2]: 2.07 ± 0.049

ACCUCG
normalized RNA/DNA level without ligand (log10) [1]: 2.028 ± 0.0069 | normalized RNA/DNA level with ligand (log10) [2]: 2.074 ± 0.0045

ACCUCC
normalized RNA/DNA level without ligand (log10) [1]: 2.08 ± 0.0086 | normalized RNA/DNA level with ligand (log10) [2]: 2.01 ± 0.028

ACCUCU
normalized RNA/DNA level without ligand (log10) [1]: 2.019 ± 0.0056 | normalized RNA/DNA level with ligand (log10) [2]: 2.014 ± 0.015

UCGCAG
normalized RNA/DNA level without ligand (log10) [1]: 1.921 ± 0.0076 | normalized RNA/DNA level with ligand (log10) [2]: 2.01 ± 0.024

UCGCAA
normalized RNA/DNA level without ligand (log10) [1]: 1.973 ± 0.017 | normalized RNA/DNA level with ligand (log10) [2]: 1.998 ± 0.018

UCGCAC
normalized RNA/DNA level without ligand (log10) [1]: 2.04 ± 0.025 | normalized RNA/DNA level with ligand (log10) [2]: 2.03 ± 0.048

UCCUCC
normalized RNA/DNA level without ligand (log10) [1]: 2.089 ± 0.016 | normalized RNA/DNA level with ligand (log10) [2]: 2.02 ± 0.046

UCCUCG
normalized RNA/DNA level without ligand (log10) [1]: 1.9194 ± 0.00071 | normalized RNA/DNA level with ligand (log10) [2]: 2 ± 0.029

UCCUCA
normalized RNA/DNA level without ligand (log10) [1]: 2.046 ± 0.013 | normalized RNA/DNA level with ligand (log10) [2]: 2.07 ± 0.034

UCCUCU
normalized RNA/DNA level without ligand (log10) [1]: 2.054 ± 0.0029 | normalized RNA/DNA level with ligand (log10) [2]: 2.04 ± 0.024

ACGCCG
normalized RNA/DNA level without ligand (log10) [1]: 2.0192 ± 0.00023 | normalized RNA/DNA level with ligand (log10) [2]: 2.029 ± 0.013

ACGCCA
normalized RNA/DNA level without ligand (log10) [1]: 2.037 ± 0.012 | normalized RNA/DNA level with ligand (log10) [2]: 2.02 ± 0.035

ACGCCC
normalized RNA/DNA level without ligand (log10) [1]: 2.051 ± 0.0035 | normalized RNA/DNA level with ligand (log10) [2]: 2.03 ± 0.059

GCGCAA
normalized RNA/DNA level without ligand (log10) [1]: 1.948 ± 0.0028 | normalized RNA/DNA level with ligand (log10) [2]: 1.98 ± 0.027

GCGCAG
normalized RNA/DNA level without ligand (log10) [1]: 2 ± 0.022 | normalized RNA/DNA level with ligand (log10) [2]: 2.03 ± 0.027

GCGCAU
normalized RNA/DNA level without ligand (log10) [1]: 1.9847 ± 0.0014 | normalized RNA/DNA level with ligand (log10) [2]: 2 ± 0.038

UCCCGA
normalized RNA/DNA level without ligand (log10) [1]: 2.033 ± 0.008 | normalized RNA/DNA level with ligand (log10) [2]: 2.07 ± 0.033

UCCCGU
normalized RNA/DNA level without ligand (log10) [1]: 2.041 ± 0.013 | normalized RNA/DNA level with ligand (log10) [2]: 2.04 ± 0.044

UCCCGG
normalized RNA/DNA level without ligand (log10) [1]: 2.05 ± 0.018 | normalized RNA/DNA level with ligand (log10) [2]: 2.05 ± 0.059

UCCCGC
normalized RNA/DNA level without ligand (log10) [1]: 2.013 ± 0.015 | normalized RNA/DNA level with ligand (log10) [2]: 1.99 ± 0.053

CCGAGG
normalized RNA/DNA level without ligand (log10) [1]: 2.011 ± 0.006 | normalized RNA/DNA level with ligand (log10) [2]: 2.01 ± 0.028

CCGAGA
normalized RNA/DNA level without ligand (log10) [1]: 1.988 ± 0.01 | normalized RNA/DNA level with ligand (log10) [2]: 2.011 ± 0.0034

CCGAGU
normalized RNA/DNA level without ligand (log10) [1]: 2.029 ± 0.014 | normalized RNA/DNA level with ligand (log10) [2]: 2.03 ± 0.032

ACGAAC
normalized RNA/DNA level without ligand (log10) [1]: 2.02 ± 0.021 | normalized RNA/DNA level with ligand (log10) [2]: 2.03 ± 0.044

ACGAAU
normalized RNA/DNA level without ligand (log10) [1]: 1.95 ± 0.021 | normalized RNA/DNA level with ligand (log10) [2]: 2 ± 0.035

GCGACA
normalized RNA/DNA level without ligand (log10) [1]: 2.024 ± 0.015 | normalized RNA/DNA level with ligand (log10) [2]: 2.05 ± 0.03

GCGACC
normalized RNA/DNA level without ligand (log10) [1]: 2.029 ± 0.0059 | normalized RNA/DNA level with ligand (log10) [2]: 2.07 ± 0.037

GCGACU
normalized RNA/DNA level without ligand (log10) [1]: 2.051 ± 0.0076 | normalized RNA/DNA level with ligand (log10) [2]: 2.06 ± 0.04

GCGACG
normalized RNA/DNA level without ligand (log10) [1]: 1.989 ± 0.017 | normalized RNA/DNA level with ligand (log10) [2]: 2.02 ± 0.045

GCCCGC
normalized RNA/DNA level without ligand (log10) [1]: 2.0838 ± 0.0006 | normalized RNA/DNA level with ligand (log10) [2]: 2.08 ± 0.03

GCCCGU
normalized RNA/DNA level without ligand (log10) [1]: 2.0126 ± 0.0014 | normalized RNA/DNA level with ligand (log10) [2]: 2.007 ± 0.0028

GCCCGG
normalized RNA/DNA level without ligand (log10) [1]: 2.089 ± 0.005 | normalized RNA/DNA level with ligand (log10) [2]: 2.02 ± 0.035

GCCCGA
normalized RNA/DNA level without ligand (log10) [1]: 2.0343 ± 0.0013 | normalized RNA/DNA level with ligand (log10) [2]: 2.04 ± 0.041

ACCCGG
normalized RNA/DNA level without ligand (log10) [1]: 2.01 ± 0.022 | normalized RNA/DNA level with ligand (log10) [2]: 2.04 ± 0.041

ACCCGU
normalized RNA/DNA level without ligand (log10) [1]: 2.0423 ± 0.0012 | normalized RNA/DNA level with ligand (log10) [2]: 2.02 ± 0.0044

ACCCGC
normalized RNA/DNA level without ligand (log10) [1]: 2.038 ± 0.02 | normalized RNA/DNA level with ligand (log10) [2]: 2.03 ± 0.041

UCCUAU
normalized RNA/DNA level without ligand (log10) [1]: 1.9805 ± 0.00094 | normalized RNA/DNA level with ligand (log10) [2]: 2.03 ± 0.034

UCCUAC
normalized RNA/DNA level without ligand (log10) [1]: 2.024 ± 0.015 | normalized RNA/DNA level with ligand (log10) [2]: 2.05 ± 0.026

UCCUAG
normalized RNA/DNA level without ligand (log10) [1]: 1.849 ± 0.004 | normalized RNA/DNA level with ligand (log10) [2]: 2.009 ± 0.0087

UCCUAA
normalized RNA/DNA level without ligand (log10) [1]: 1.981 ± 0.0064 | normalized RNA/DNA level with ligand (log10) [2]: 2.018 ± 0.014

UCGCCU
normalized RNA/DNA level without ligand (log10) [1]: 2.08 ± 0.043 | normalized RNA/DNA level with ligand (log10) [2]: 2.082 ± 0.016

UCGCCG
normalized RNA/DNA level without ligand (log10) [1]: 2.016 ± 0.0047 | normalized RNA/DNA level with ligand (log10) [2]: 2.05 ± 0.032

UCGCCA
normalized RNA/DNA level without ligand (log10) [1]: 2.027 ± 0.0078 | normalized RNA/DNA level with ligand (log10) [2]: 2.03 ± 0.023

UCGCCC
normalized RNA/DNA level without ligand (log10) [1]: 2.05 ± 0.039 | normalized RNA/DNA level with ligand (log10) [2]: 2.04 ± 0.033
